Data from publication PMC5376975, “Structural studies of RFCC tf18 reveal a novel chromatin recruitment role for Dcc1”.

Tests used:
Dcc1 triple mutant = target: T1, Dcc1 triple mutant (Saccharomyces cerevisiae, UniProt P25559 90-380, K364A;R367A;R380A); experiment: EMSA; EMSA, 6% native gel in 0.5x TBE, 4 C, DNA 1 uM unless stated; binding buffer, salt and pH not stated (protein storage 10 mM Tris pH 7.5, 150 mM NaCl, 0.5 mM TCEP for the complex); details: protein: recombinant
T1 sequence: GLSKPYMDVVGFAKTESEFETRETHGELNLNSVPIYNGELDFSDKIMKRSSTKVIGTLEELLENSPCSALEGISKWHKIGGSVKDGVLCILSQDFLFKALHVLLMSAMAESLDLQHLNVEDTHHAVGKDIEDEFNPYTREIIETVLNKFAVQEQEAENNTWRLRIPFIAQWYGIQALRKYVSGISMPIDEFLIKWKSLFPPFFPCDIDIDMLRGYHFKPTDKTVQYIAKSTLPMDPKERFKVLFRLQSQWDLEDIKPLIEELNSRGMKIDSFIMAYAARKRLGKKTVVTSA

Dcc1 dWH3 = target: T2, Dcc1 dWH3 (Saccharomyces cerevisiae, UniProt P25559 90-318, del319-380); experiment: EMSA; also none at reduced DNA, overexposed gel; EMSA, 6% native gel in 0.5x TBE, 4 C, DNA 1 uM unless stated; binding buffer, salt and pH not stated (protein storage 10 mM Tris pH 7.5, 150 mM NaCl, 0.5 mM TCEP for the complex); details: protein: recombinant; label: 5' 6-FAM on sense strand
T2 sequence: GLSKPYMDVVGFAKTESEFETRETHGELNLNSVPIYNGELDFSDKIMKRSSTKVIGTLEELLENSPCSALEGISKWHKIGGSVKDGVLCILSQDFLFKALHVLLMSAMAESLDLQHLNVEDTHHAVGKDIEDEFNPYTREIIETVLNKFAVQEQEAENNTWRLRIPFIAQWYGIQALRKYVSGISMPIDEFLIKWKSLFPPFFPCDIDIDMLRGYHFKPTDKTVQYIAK

B1: 25-mer oligo d(T) (ssDNA)
DNA: TTTTTTTTTTTTTTTTTTTTTTTTT
- binding result (Dcc1 triple mutant; label: 5' 6-FAM): no binding

B2: 22-mer dsDNA (dsDNA)
DNA 1: TCTCCACAGGAAACGGAGGGGT
DNA 2: ACCCCTCCGTTTCCTGTGGAGA
- binding result (Dcc1 triple mutant; label: 5' 6-FAM on sense strand): no binding
- binding result (Dcc1 dWH3): no binding
